As a reminder, the Kd is the equilibrium constant for the complex coming apart. A high value points to weaker binding. Broadly, the koff is the first-order rate constant of dissociation. The low end stands for slow dissociation, the high end for fast dissociation. In general, kon refers to the second-order rate constant of association. Higher therefore signals fast association.

In one test the target is human CEACAM5 extracellular domain (Homo sapiens) (UniProt P06731). The experiment in a line: SPR. In general terms: In SPR one partner is held on a chip, and binding of the other changes the refractive index at the surface.
Consider “tusa Fab+Fc heavy chain Gly26Ala variant (antibody)”, for which the Kd was 8.2 nM, the koff amounted to 0.00322 s⁻¹ and the kon was found to be 395000 M⁻¹ s⁻¹.

With “tusa Fab+Fc heavy chain His99Ala variant (antibody)”, the Kd was determined as 306 nM, the koff amounted to 0.0199 s⁻¹ and the kon stood at 64800 M⁻¹ s⁻¹.

In turn, “tusa Fab+Fc heavy chain Phe29Ala variant (antibody)” had an equilibrium dissociation constant (Kd) of 8.2 nM and a koff of 0.00368 s⁻¹.

Take “tusa Fab+Fc heavy chain Ser30Ala variant (antibody)”: the Kd turned out to be 6.7 nM, the koff was 0.00205 s⁻¹ and the kon worked out at 307000 M⁻¹ s⁻¹.

As to “tusa Fab+Fc heavy chain Ser53Ala variant (antibody)”, the Kd amounted to 5.6 nM and the on-rate constant (kon) is 321000 M⁻¹ s⁻¹.

“tusa Fab+Fc heavy chain Tyr50Ala variant (antibody)” yielded a Kd of 2010 nM, a koff of 0.0531 s⁻¹ and a kon of 26400 M⁻¹ s⁻¹.

Substance “tusa Fab+Fc light chain His91Ala variant (antibody)” gave a koff of 0.0637 s⁻¹ and a kon of 73200 M⁻¹ s⁻¹.

Turning to “tusa Fab+Fc light chain Phe30Ala variant (antibody)”, the Kd was 1340 nM, the koff worked out at 0.0362 s⁻¹ and the t1/2 of dissociation stood at 18 s.

“tusa Fab+Fc light chain Ser31Ala variant (antibody)” displayed an equilibrium dissociation constant (Kd) of 8.2 nM, a koff of 0.00238 s⁻¹ and a kon of 291000 M⁻¹ s⁻¹.

The substance “tusa Fab+Fc light chain Tyr92Ala variant (antibody)” displayed a dissociation constant (Kd) of 1790 nM, a koff of 0.0552 s⁻¹ and a kon of 30800 M⁻¹ s⁻¹.

For the substance “tusamitamab antigen-binding fragment region plus the fragment crystallizable region, wild type (antibody)”, the Kd was found to be 14 nM, the koff amounted to 0.00386 s⁻¹ and the kon was 275000 M⁻¹ s⁻¹.

In the next test the target is tusa Fab+Fc light chain Pro95Ala variant (human) (UniProt P01834). The experiment in a line: SPR.
For “human CEACAM5 extracellular domain (from UniProt P06731 35-685) (domain or fragment)”, the Kd was 13500 nM, the koff stood at 0.0177 s⁻¹ and the kon stood at 1310 M⁻¹ s⁻¹.

The values are drawn from paper PMC11525548.
